Results reported in article PMC4988710, “A Model for Dimerization of the SOX Group E Transcription Factor Family”.

Experiments:
[1] = biological target: T1, SOX9 D-HMG (high solubility variant) (Homo sapiens) (UniProt P48436); assay: EMSA; settings: 10 mM sodium phosphate pH 6.0, 100 mM NaCl, 5 mM EDTA, on ice 30 min (1 h for 32P titrations); 9 nM DNA for Kd, 2 uM DNA for SYBR Green EMSA
T1 sequence: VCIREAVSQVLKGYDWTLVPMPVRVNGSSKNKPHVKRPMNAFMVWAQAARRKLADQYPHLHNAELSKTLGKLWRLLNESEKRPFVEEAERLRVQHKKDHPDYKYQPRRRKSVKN

SOX9 HMG [2] = biological target: T2, SOX9 HMG (Homo sapiens, UniProt P48436 110-184); assay: EMSA; Hill 1.6 ± 0.5; 10 mM sodium phosphate pH 6.0, 100 mM NaCl, 5 mM EDTA, on ice 30 min (1 h for 32P titrations); 9 nM DNA for Kd, 2 uM DNA for SYBR Green EMSA; settings: protein: recombinant; tags: 6xHis; label: 32P 5'; blunt
SOX9 D-HMG L145E = SOX9 D-HMG L145E (Homo sapiens, UniProt P48436 71-184, L145E); assay: EMSA; dimerization retained; 10 mM sodium phosphate pH 6.0, 100 mM NaCl, 5 mM EDTA, on ice 30 min (1 h for 32P titrations); 9 nM DNA for Kd, 2 uM DNA for SYBR Green EMSA; settings: protein: recombinant; tags: 6xHis; chain copies: 2; label: 32P 5' for Kd; unlabeled (SYBR Green) in mutant EMSA; blunt; self-complementary, 2 copies of one strand
SOX9 D-HMG A118E = SOX9 D-HMG A118E (Homo sapiens, UniProt P48436 71-184, A118E); assay: as above; settings: protein: recombinant; tags: 6xHis; chain copies: 2; label: 32P 5' for Kd; unlabeled (SYBR Green) in mutant EMSA; blunt; self-complementary, 2 copies of one strand
SOX9 D-HMG A119E = SOX9 D-HMG A119E (Homo sapiens, UniProt P48436 71-184, A119E); assay: EMSA; dimerization lost; single and double occupancy bands; 10 mM sodium phosphate pH 6.0, 100 mM NaCl, 5 mM EDTA, on ice 30 min (1 h for 32P titrations); 9 nM DNA for Kd, 2 uM DNA for SYBR Green EMSA; settings: protein: recombinant; tags: 6xHis; chain copies: 2; label: 32P 5' for Kd; unlabeled (SYBR Green) in mutant EMSA; blunt; self-complementary, 2 copies of one strand
SOX9 D-HMG L142Q = SOX9 D-HMG L142Q (Homo sapiens, UniProt P48436 71-184, L142Q); assay: as above; settings: protein: recombinant; tags: 6xHis; chain copies: 2; label: 32P 5' for Kd; unlabeled (SYBR Green) in mutant EMSA; blunt; self-complementary, 2 copies of one strand
SOX9 HMG [3] = biological target: T2, SOX9 HMG; assay: EMSA; Hill 2.2 ± 0.4; 10 mM sodium phosphate pH 6.0, 100 mM NaCl, 5 mM EDTA, on ice 30 min (1 h for 32P titrations); 9 nM DNA for Kd, 2 uM DNA for SYBR Green EMSA; settings: protein: recombinant; tags: 6xHis; label: 32P 5' for Kd; unlabeled (SYBR Green) in mutant EMSA; blunt; self-complementary, 2 copies of one strand

Molecule: GGGATCCTACACAAAGCCGGCTTTGTGTAGGATCCC (double strand) [CC36]
- Kd [1]: 98 nM

Molecule: GGGTTAACAGAACAATGGAATCTGGTAGA (double strand) [S9WT]
- Kd [1]: 82 nM

B1: S9WT (dsDNA)
DNA 1: GGGTTAACAGAACAATGGAATCTGGTAGA
DNA 2: TCTACCAGATTCCATTGTTCTGTTAACCC
- Kd (SOX9 HMG [2]): 101 ± 33 nM

B2: CC36 (dsDNA)
DNA 1: GGGATCCTACACAAAGCCGGCTTTGTGTAGGATCCC
DNA 2: GGGATCCTACACAAAGCCGGCTTTGTGTAGGATCCC
- binding result (SOX9 D-HMG L145E): binds
- binding result (SOX9 D-HMG A118E): binds
- binding result (SOX9 D-HMG A119E): binds
- binding result (SOX9 D-HMG L142Q): binds
- Kd (SOX9 HMG [3]): 109 ± 10 nM
